Measured values taken from the supplement of paper PMC9732359.
± gives the uncertainty stated by the source.

Assay: protein stability index of a GFP-peptide fusion (yeast GPS) (PSI 1-4); higher = more stable; sorted into four equal gates, so the index is relative within each strain
Procedure, shortened: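 For each peptide, the protein stability index sums the read frequency in every gate after multiplying it by the gate number. Read frequencies came from plasmids that were PCR-amplified from each gate and Illumina-sequenced, with reads assigned to strains by barcodes. The gates were four equal bins of GFP/Cherry fluorescence ratio applied to mid-log yeast in leucine-free medium carrying a pooled library of tiled 17-residue yeast protein peptides fused downstream of GFP on a Cherry-expressing plasmid.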

Sequence	protein stability index (doa10∆)	protein stability index (pdr5∆)	protein stability index (san1∆)	protein stability index (ubr1∆)
AAAAVCEKWAASSWAKK [RPL14A]	2.52 ± 0.052	3.08 ± 0.089	2.56 ± 0.056	2.68 ± 0.058
AAAEIADEPVKASLLLH [FAS2]	3.1 ± 0.18	3.01 ± 0.24	2.75 ± 0.19	1.17 ± 0.21
AAFEKRYRVDLLNTDHT [RPO21]	3.11 ± 0.076	3 ± 0.059	2.89 ± 0.058	2.88 ± 0.077
AAGAGAAAGAAMIDAGA [FAS2]	2.84 ± 0.15	2.98 ± 0.12	–	2.99 ± 0.12
AAGKRISHIEKRIESLQ [SMC1]	3.09 ± 0.099	3.07 ± 0.096	2.93 ± 0.073	3.08 ± 0.095
AAGNASSLPPGEILLPD [SNF5]	3.15 ± 0.077	3.2 ± 0.063	3.1 ± 0.06	3.3 ± 0.053
AAIRQPTRYVLIRNVGT [POP1]	1.64 ± 0.073	2.07 ± 0.083	1.77 ± 0.11	1.31 ± 0.053
AALRTVKSLVDNMITGV [RPL9A]	2.5 ± 0.091	3.17 ± 0.076	2.99 ± 0.071	3.03 ± 0.075
AAPKKTRKAVRPQKLRA [RPL6B]	2.64 ± 0.11	2.61 ± 0.29	2.8 ± 0.16	–
AASWYGSFNEMKRNCGQ [RMP1]	2.92 ± 0.051	3.3 ± 0.054	3.06 ± 0.052	3.21 ± 0.045
AATIGANFIFSPASGIV [RPT4]	2.56 ± 0.061	2.66 ± 0.055	1.84 ± 0.1	2.18 ± 0.083
ADNGEEYLTLNDFNDLN [MED2]	2.96 ± 0.23	3.3 ± 0.14	3.55 ± 0.12	3.27 ± 0.082
ADSAVNRQTLMFTATMT [PRP28]	2.6 ± 0.056	2.72 ± 0.049	2.58 ± 0.046	2.65 ± 0.049
ADTKAPTFTFGSSALAD [YLR335W/NUP2]	3.25 ± 0.069	3.01 ± 0.053	3.08 ± 0.048	3.11 ± 0.033
AEDLTIAAKTHILRISF [SIN4]	2.36 ± 0.12	3.02 ± 0.09	2.85 ± 0.085	–
AEEALEPSYIFEYLATV [PRE4]	2.66 ± 0.059	2.44 ± 0.067	2.54 ± 0.061	2.73 ± 0.045
AEEQTKLQSQSLHTKNV [YLR018C/POM34]	3.29 ± 0.058	3.44 ± 0.063	3.1 ± 0.071	3.13 ± 0.049
AEEVRNFALTTLIDLVK [ECM29]	2.59 ± 0.086	1.9 ± 0.075	1.78 ± 0.073	2 ± 0.059
AEFKKRKIEAETRNGKV [YCS4]	2.82 ± 0.1	3.18 ± 0.072	3.18 ± 0.1	3.13 ± 0.094
AEHSQNKIDQSLQYIER [YJL041W/NSP1]	3.17 ± 0.069	3.16 ± 0.043	3.21 ± 0.049	3.04 ± 0.048
AELNLPTVDEQRQYKVQ [SNF11]	3.22 ± 0.081	3.3 ± 0.08	3.12 ± 0.092	3.31 ± 0.067
AELQSNLQVELLSEHDD [YGL100W/SEH1]	2.61 ± 0.083	2.95 ± 0.065	2.62 ± 0.07	2.87 ± 0.061
AELVQKYIGEGSRMVRE [RPT6]	2.74 ± 0.088	2.69 ± 0.075	2.65 ± 0.075	2.33 ± 0.11
AENDVIEATDLGNIASS [BRR2]	3.05 ± 0.075	3.17 ± 0.086	3.19 ± 0.064	3.27 ± 0.056
AFAGSKNDEVLGLLLPI [RPN1]	–	3.2 ± 0.14	3.05 ± 0.17	3.19 ± 0.13
